Experimental data: patent publication US9932621B2, “Modulators for Sirt5 and assays for screening same” (CORNELL UNIVERSITY, priority 2010, dated 2018)
Entries after “also recorded” stand apart in the source; their conditions may differ. *1 amine or outer side, *2 acyl side, *3 side chain or, on linkers, in order; H or OH if unused. Where no end group is shown, it is not given here. The star is where a group is joined. Malonyl = O=C(CC(=O)[*:2])[*:1]; AMC = Cc1cc(=O)oc2cc(N*)ccc12; Suc = O=C(CCC(=O)[*:2])[*:1]

Columns and labels:
[1] = target: T1, Sirt5 (Homo sapiens, UniProt Q9NXA8); assay: Sirt5 deacetylation, demalonylation, desuccinylation kinetics on WW-tagged peptides by HPLC; type: biochemical; conditions: peptides with two C-terminal tryptophan residues; for Km: read-out: Peptide Km
T1 construct: made in house
T1 sequence (Q9NXA8 37-310): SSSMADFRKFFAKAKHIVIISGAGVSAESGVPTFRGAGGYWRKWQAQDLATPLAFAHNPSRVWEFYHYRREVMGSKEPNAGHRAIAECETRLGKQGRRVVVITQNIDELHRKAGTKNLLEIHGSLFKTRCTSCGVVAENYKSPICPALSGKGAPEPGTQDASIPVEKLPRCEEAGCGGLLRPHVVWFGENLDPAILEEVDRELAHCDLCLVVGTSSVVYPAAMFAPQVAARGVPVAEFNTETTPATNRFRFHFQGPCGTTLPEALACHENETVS
Method: (§1) For determination of kcat and Km, human Sirt1, Sirt2, Sirt3 and Sirt5 were measured by detecting the deacylated peptide from H3K9 acyl peptides using HPLC. Purified Sirtuin was incubated with 1.0 mM of NAD in 20 mM Tris-HCl buffer (pH 7.5) containing acyl peptides (0-750 μM) and 1 mM DTT in 60 μL reactions at 37° C. The reactions were stopped with 100 mM HCl and 160 mM acetic acid, analyzed by HPLC with a reverse phase C18 column (250×4.6 mm, 90 A, 10 μm, GraceVydac, Southborough, Mass.), with a linear gradient of 0% to 20% B for 10 min (1 mL/min). […] The kcat and Km values were obtained by curve-fitting the Vinitial/[E] versus [S] plot using KaleidaGraph. For Sirt5 R105M, the observed second order rate constant, kobs (rate/([Sirtuin][NAD])) was detected instead of kcat and Km because of the very weak deacylation activity. The experiments were done in duplicate.
(§2) For comparing the deacetylation, demalonylation and desuccinylation activities of Sirt5 on different peptide backbones (results shown in Table 2), histone H3, GDH and ACS2 peptides with two tryptophan residues at the C-terminal were used to allow better detection and quantification on HPLC. The determination of kcat and Km was carried out essentially the same as mentioned above with slight modifications. The reactions were quenched with 60 μL 10% TFA. The chromatography gradient was 0% to 50% B for 20 min (1 mL/min). The peptides were detected and quantified on the LC by the absorption at 280 nm.

[2] = target: T1, Sirt5; assay: Sirt5-catalyzed desuccinylation of AMC-succinyl peptides monitored by HPLC; type: biochemical; conditions: 2 hrs
Method: […] The reactions were stopped with 200 mM HCl and 320 mM acetic acid, analyzed by HPLC with a reverse phase C18 column (250×4.6 mm, 90 A, 10 μm, GraceVydac, Southborough, Mass.), with a linear gradient of 0% to 20% B for 10 min (1 mL/min).

[3] = target: T2, Sirt2 (Homo sapiens, UniProt Q8IXJ6); assay: Secondary screening using Sirt2 and ISGASE(AcK)-AMC fluorogenic assay; type: biochemical; conditions: inhibitor 30 μM, ISGASE(AcK)-AMC 0.3 mM, Sirt2 1 μM, FIG. 15
T2 construct: made in house
T2 sequence (Q8IXJ6 1-389): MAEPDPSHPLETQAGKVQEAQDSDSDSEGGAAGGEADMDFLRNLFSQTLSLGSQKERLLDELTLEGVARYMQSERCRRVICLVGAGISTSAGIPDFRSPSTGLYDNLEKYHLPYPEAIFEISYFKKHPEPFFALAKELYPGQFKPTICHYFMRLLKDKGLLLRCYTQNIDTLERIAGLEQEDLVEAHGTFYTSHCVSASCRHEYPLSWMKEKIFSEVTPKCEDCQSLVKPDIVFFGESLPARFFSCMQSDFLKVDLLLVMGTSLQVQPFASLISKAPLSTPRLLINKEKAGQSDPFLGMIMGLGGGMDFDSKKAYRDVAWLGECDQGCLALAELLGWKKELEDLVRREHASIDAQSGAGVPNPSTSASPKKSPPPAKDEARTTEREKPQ
Method: SirT2 (1 μM) was incubated with ISGASE(AcK)-AMC (SEQ ID NO:13) peptide (0.3 mM), inhibitors (30 μM), NAD (0.5 mM) in Tris-HCl buffer (pH 7.4, 20 mM) containing dithiothreitol (DTT, 1 mM) in a 60 μL reaction for 4 hours at 37° C. Then trypsin (1 μg) and CaCl2 (1 mM) were added and the reaction were incubated for 3 hours at 37° C. The reactions were diluted with 50 μL water. The mixture (100 μL) was transferred to 96 well plate and the fluorescence was recorded by BIO-TEK® Synergy HT (Optics Position: Top, Sensitivity: 50, Excitation at the wavelength of 360 nm and Emission at the wavelength of 460 nm).

[4] = target: T1, Sirt5; assay: Screening for Sirt5 inhibitors with ISGASE(SuK)-AMC in the fluorogenic assay; type: biochemical; conditions: compound 30 μM, ISGASE(SuK)-AMC 0.3 mM, Sirt5 1 μM, FIG. 13
Method: SirT5 (1 μM) was incubated with ISGASE(SuK)-AMC (SEQ ID NO:11) peptide (0.3 mM), NAD (0.5 mM) in Tris-HCl buffer (pH 7.4, 20 mM) with DTT (1 mM) in 60 μL reactions for 4 hours at 37° C. Then trypsin (1 μg) and CaCl2 (1 mM) were added and the reactions were incubated for 3 hours at 37° C. The reactions were the diluted with 50 μL water. The mixture (100 μL) was transferred to 96 well plate and the fluorescence was recorded by BIO-TEK® Synergy HT plate reader (Optics Position: Top, Sensitivity: 50, Excitation at the wavelength of 360 nm and Emission at the wavelength of 460 nm).
The procedure was the same as described above (Assaying Sirt5 activity on ISGASE(SuK)-AMC in the fluorogenic assay), except that different compounds (30 μM) were included in the reactions. In the desuccinylation step, Sirt5 was added last to initiate the desuccinylation reaction.

[5] = substrate: C[C@H](NC(=O)[C@@H](NC(=O)[C@H](CCC(N)=O)NC(=O)[C@@H](N)CCCCN)[C@@H](C)O)C(=O)N[C@@H](CCCNC(=N)N)C(=O)N[C@@H](CCCCNC(=O)CC(=O)O)C(=O)N[C@@H](CO)C(=O)N[C@H](C(=O)NCC(=O)NCC(=O)N[C@@H](Cc1c[nH]c2ccccc12)C(=O)N[C@@H](Cc1c[nH]c2ccccc12)C(=O)O)[C@@H](C)O; assay: Sirt5 deacetylation, demalonylation, desuccinylation kinetics on WW-tagged peptides by HPLC; type: biochemical, human; conditions: other: Sirt5, peptides with two C-terminal tryptophan residues, pH 7.5
Method: as §1, §2

[6] = substrate: C[C@H](NC(=O)[C@@H](NC(=O)[C@H](CCC(N)=O)NC(=O)[C@@H](N)CCCCN)[C@@H](C)O)C(=O)N[C@@H](CCCNC(=N)N)C(=O)N[C@@H](CCCCNC(=O)CCC(=O)O)C(=O)N[C@@H](CO)C(=O)N[C@H](C(=O)NCC(=O)NCC(=O)N[C@@H](Cc1c[nH]c2ccccc12)C(=O)N[C@@H](Cc1c[nH]c2ccccc12)C(=O)O)[C@@H](C)O; assay: as above; type: biochemical, human; conditions: other: Sirt5, peptides with two C-terminal tryptophan residues, pH 7.5
Method: as §1, §2

“GDH K503 (498-509 + WW) malonyl peptide: GDH K503 malonyl peptide (498-509) with two C-terminal tryptophan residues (SGASEK(Malonyl)DIVHSGWW)” was tested, and the kcat [1] was 0.014 ± 0.001 s⁻¹ and the Km [1] was 8.7 ± 1.3 µM.

For “GDH K503 (498-509 + WW) acetyl peptide: GDH K503 acetyl peptide (498-509) with two C-terminal tryptophan residues (SGASEK(Ac)DIVHSGWW)”, the Km [1] was > 750 µM.

“KQTARK(Ac)STGGWW [H3 K9 (4-13 + WW) acetyl peptide]” was tested, and the Km [1] was > 750 µM.

Work on ISGASE(SuK)-AMC (ISGASEK(Suc)-{AMC}) yielded a succinyl peptide desuccinylated ([2]; 1 μM Sirt5, 300 μM peptide) of 7.3%, a succinyl peptide desuccinylated ([2]; 2 μM Sirt5, 300 μM peptide) of 17% and a succinyl peptide desuccinylated ([2]; 5 μM Sirt5, 300 μM peptide) of 36%.

In the case of “GDH K503 (498-509 + WW) succinyl peptide: GDH K503 succinyl peptide (498-509) with two C-terminal tryptophan residues (SGASEK(Suc)DIVHSGWW)”, the kcat [1] is reported as 0.028 ± 0.002 s⁻¹ and the Km [1] is reported as 14 ± 4 µM.

For `Cc1ccc(C(=O)Nc2ccc(S(=O)(=O)O)c3cc(S(=O)(=O)O)cc(S(=O)(=O)O)c23)cc1NC(=O)c1cccc(NC(=O)Nc2cccc(C(=O)Nc3cc(C(=O)Nc4ccc(S(=O)(=O)O)c5cc(S(=O)(=O)O)cc(S(=O)(=O)O)c45)ccc3C)c2)c1` [suramin], the “fluorescence produced by Sirt2 in fluorogenic assay” value [3] was “decreased the fluorescence to almost background level” and the “inhibition of Sirt5 (fluorescence) in fluorogenic assay” value [4] was “close to background level; also recorded: significant inhibition”.

B1: Sirt5 (Homo sapiens) (protein)
chain: SSSMADFRKFFAKAKHIVIISGAGVSAESGVPTFRGAGGYWRKWQAQDLATPLAFAHNPSRVWEFYHYRREVMGSKEPNAGHRAIAECETRLGKQGRRVVVITQNIDELHRKAGTKNLLEIHGSLFKTRCTSCGVVAENYKSPICPALSGKGAPEPGTQDASIPVEKLPRCEEAGCGGLLRPHVVWFGENLDPAILEEVDRELAHCDLCLVVGTSSVVYPAAMFAPQVAARGVPVAEFNTETTPATNRFRFHFQGPCGTTLPEALACHENETVS
notes: made in house
In the case of B1, the Km [5] is reported as 6.1 ± 2.8 µM, the kcat [5] is reported as 0.037 ± 0.003 s⁻¹ and the kcat/Km [5] is reported as 6100 M⁻¹ s⁻¹. The Km [6] was 5.8 ± 2.7 µM, the kcat [6] was 0.025 ± 0.002 s⁻¹ and the kcat/Km [6] was 4300 M⁻¹ s⁻¹.
